Source: JP2003261460A

Molecular target: Flt-1 (VEGFR-1, fms-like tyrosine kinase-1) of wild-type mice (WF) (mouse) (UniProt P35969)
Test: cell-based or functional assay

UniProt P35969, sequence (P35969 23-1333 S1181G): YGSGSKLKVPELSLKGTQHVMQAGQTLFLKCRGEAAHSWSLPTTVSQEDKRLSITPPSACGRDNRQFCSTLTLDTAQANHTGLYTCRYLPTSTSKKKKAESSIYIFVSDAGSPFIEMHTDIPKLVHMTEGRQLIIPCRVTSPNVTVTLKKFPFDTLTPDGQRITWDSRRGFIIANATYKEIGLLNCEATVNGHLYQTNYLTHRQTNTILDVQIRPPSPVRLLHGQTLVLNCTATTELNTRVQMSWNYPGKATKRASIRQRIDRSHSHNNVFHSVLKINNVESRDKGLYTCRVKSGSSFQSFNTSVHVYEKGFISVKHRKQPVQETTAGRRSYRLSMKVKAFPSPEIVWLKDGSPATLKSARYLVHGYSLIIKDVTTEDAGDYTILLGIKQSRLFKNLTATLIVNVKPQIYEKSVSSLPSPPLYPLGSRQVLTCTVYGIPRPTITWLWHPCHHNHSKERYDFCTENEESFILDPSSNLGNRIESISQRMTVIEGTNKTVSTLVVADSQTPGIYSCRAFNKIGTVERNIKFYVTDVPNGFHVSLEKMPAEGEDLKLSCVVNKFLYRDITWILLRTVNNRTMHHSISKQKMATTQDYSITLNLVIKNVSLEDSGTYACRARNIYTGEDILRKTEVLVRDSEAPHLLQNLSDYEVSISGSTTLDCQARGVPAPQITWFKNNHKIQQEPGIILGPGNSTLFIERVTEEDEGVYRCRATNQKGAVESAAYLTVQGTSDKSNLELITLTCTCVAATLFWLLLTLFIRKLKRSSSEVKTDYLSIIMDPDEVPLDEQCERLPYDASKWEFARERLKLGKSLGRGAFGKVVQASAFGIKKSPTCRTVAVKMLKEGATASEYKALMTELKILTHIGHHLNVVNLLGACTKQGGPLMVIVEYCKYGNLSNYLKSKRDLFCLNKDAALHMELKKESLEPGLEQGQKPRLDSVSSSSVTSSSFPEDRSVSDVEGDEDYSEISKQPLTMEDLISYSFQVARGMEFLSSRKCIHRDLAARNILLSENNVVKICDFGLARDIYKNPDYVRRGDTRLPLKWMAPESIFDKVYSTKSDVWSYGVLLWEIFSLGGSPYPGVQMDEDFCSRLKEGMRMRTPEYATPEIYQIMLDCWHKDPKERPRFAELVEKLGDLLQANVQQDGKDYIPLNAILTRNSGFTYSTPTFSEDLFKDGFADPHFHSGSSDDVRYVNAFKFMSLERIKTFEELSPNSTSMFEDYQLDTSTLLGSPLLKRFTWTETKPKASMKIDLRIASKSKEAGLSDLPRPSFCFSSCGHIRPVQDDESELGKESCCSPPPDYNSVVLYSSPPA

MMP-9誘導 (肺組織培養, ゼラチン基質ザイモグラフィー): 40 ng/mL
Substance: VEGF (R&D社製) (ligand)
